From patent publication US5968751A, “Method for detecting the presence of protein C antibody in a fluid sample” (The Scripps Research Institute, priority 1997, dated 1999)
No end group written: not given here.

How the values were obtained:
[1] = target: T1, APC (Homo sapiens, UniProt P04070); set-up: Protein C consists of a 155 amino acid residue light chain and a 262 amino acid residue heavy chain; from tissue; alpha1-AT mutant from Transgene, Strasbourg; settings: Heeb et al. 1990; cited from earlier work
Target sequence in this assay (P04070 43-197): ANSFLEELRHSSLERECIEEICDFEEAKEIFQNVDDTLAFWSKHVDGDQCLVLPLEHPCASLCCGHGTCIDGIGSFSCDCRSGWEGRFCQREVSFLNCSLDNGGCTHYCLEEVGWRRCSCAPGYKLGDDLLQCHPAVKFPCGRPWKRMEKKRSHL
Target sequence in this assay (P04070 212-461): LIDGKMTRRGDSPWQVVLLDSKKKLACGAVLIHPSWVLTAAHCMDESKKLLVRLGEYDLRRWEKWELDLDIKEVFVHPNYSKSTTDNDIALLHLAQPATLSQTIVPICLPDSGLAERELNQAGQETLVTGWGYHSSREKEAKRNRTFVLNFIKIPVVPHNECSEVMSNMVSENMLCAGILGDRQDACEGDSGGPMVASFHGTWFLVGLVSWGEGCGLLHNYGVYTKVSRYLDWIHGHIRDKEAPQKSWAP

[2] = target: T1, APC; test: Xa-1-stage coagulation assay, inhibition of APC anticoagulant activity; type: biochemical; set-up: Protein C consists of a 155 amino acid residue light chain and a 262 amino acid residue heavy chain; from tissue; host or cells: human plasma factor IX concentrate; settings: final peptide concentration 500 μM; NHP; 0 = no observable effect +10%
Procedure: For testing the inhibition of the synthetic peptides on APC activity described above, Xa-1-stage coagulation assays were also performed as described. See Seegers et al., Thrombosis Res., 13:233-243 (1978); Marlar et al., supra; and Walker et al., J. Biol. Chem., 265:1484-1489 (1990). PC heavy chain-derived peptides listed below in Table 6 and PC light chain-derived peptides listed below in Table 7 were prepared as described above and separately admixed for a final concentration of 2 mM with 120 nM APC in 100 μl of TBS-BSA at pH 7.4 to form separate peptide-APC admixtures. The resulting admixtures were maintained for ten minutes at 37° C. Separate aliquots of peptides maintained under the same conditions in the absence of APC served as controls for the inhibitory effect of synthetic peptides on APC anticoagulant activity. After the maintenance period, 100 μl of NHP and 100 μl of 200 μg/ml of rabbit brain cephalin (Sigma) were admixed into each peptide admixture and maintained for 200 seconds at 37° C. to form pre-coagulation admixtures. In some experiments, Factor VIII deficient plasma (George King Bio-Medical, Inc.) was used in the place of NHP to determine the effect of Factor VIII on the assay system. Coagulation was then initiated by the admixture of 100 μl of 0.62 nM human activated Factor X (Xa) (Enzyme Research Laboratories, Southbend, Ind.) in TBS-BSA containing 30 mM CaCl2 prewarmed to 37° C. to each of the pre-coagulation admixtures.
The time for clot formation was measured by an Electra 700 Automatic Coagulation Timer (Medical Laboratory Automation, Inc., Mount Vernon, N.Y.). Each peptide's effect was determined in duplicate. The results of the inhibition of APC anticoagulant activity by synthetic peptides as measured in Xa-1-stage coagulation assays are presented in Tables 6 and 7 below with the APTT assay results and are presented as the mean values obtained with APTT assays. Data for results with PC heavy chain-derived peptides are shown in Table 6 and data for results with PC light chain-derived peptides are shown in Table 7.
The results of inhibition of APC anticoagulant activity by PC light chain-derived peptides in a Xa-1 stage coagulation assay are shown in Table 7. The assay was performed in the presence of NHP. Peptides used in the assay were prepared as described in Example 1 and are listed in Table 7 by their corresponding residue positions in native PC protein (SEQ ID NO 1). For all peptides except PC142-155 used in the Xa-1 stage assays listed in Table 7, cysteine residues in the native PC amino acid residue sequence were substituted by either serine or glycine in the synthesized peptide. This was done to prevent multiple disulfide formation and subsequent potential polymerization among peptides with multiple cysteines. […]
Target sequence in this assay (P04070 43-197 limits assumed): as the sequence (P04070 43-197) above
Target sequence in this assay (P04070 212-450 limits assumed): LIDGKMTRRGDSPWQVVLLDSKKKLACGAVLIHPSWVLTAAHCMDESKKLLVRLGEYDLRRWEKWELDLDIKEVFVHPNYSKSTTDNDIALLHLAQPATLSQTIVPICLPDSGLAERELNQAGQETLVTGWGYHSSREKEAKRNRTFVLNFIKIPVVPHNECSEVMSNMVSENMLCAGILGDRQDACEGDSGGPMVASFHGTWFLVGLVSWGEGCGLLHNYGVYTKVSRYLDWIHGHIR

| inhibition at 500 µM [2] | Substance | increase in the association rate for APC by substitution of Met358 by Arg [1] |
| --- | --- | --- |
| – | α1 -AT: recombinant mutant (Arg358)-α1-antitrypsin, macromolecular pseudo-substrate inhibitor of APC (Transgene) | over 4400 fold |
| 66% | HPAVKFPSGRPWKRM-NH2 (C-terminus assumed) [PC134-148] | – |
